Experimental data: the supplement of paper PMC6757056
± gives the standard deviation of the averaged measurements.

B1: library; a variant is named by its letters at N, in order (parent)
chain: GCUGUCACCGAGAAACUGUGAAGUAUAUCUUAAACCUGGGCACUUAAAAGAUAUAUGGAGUUAGUAGUGCAACCUGCUCGGUCUGAUGAGUCCNNNNNNGGACGAAACAGC

How the values were obtained:
cyclic di-GMP [1] = variants of: B1; experiment: normalized RNA/DNA level without ligand (relative to sTRSVctl = 100) (log10 (% of sTRSVctl)); HEK293T; ligand: cyclic di-GMP (c-di-GMP-II aptamer); higher = less ribozyme self-cleavage, higher mRNA level; details: reporter: mCherry (pCS4076), ligand present: no
In short: (§1)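 Ribozyme switch library plasmids with mCherry reporters (eGFP in certain ligand experiments) went into HEK293T cells at 4 µg per 6-well well. Where ligand was used, it was applied 1 h before transfection, and total RNA was extracted with EDTA 72 h later for reverse transcription, amplification, barcoding and sequencing. RNA level is the RNA-to-DNA read ratio normalized to a spiked-in non-cleaving sequence or to the leading sequences, then scaled and log-transformed. Scaling was ×100 with log10, the leading set comprised 25 sequences, and the cutoff was ≥100 DNA reads.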

cyclic di-GMP [2] = variants of: B1; experiment: normalized RNA/DNA level with ligand (relative to sTRSVctl = 100) (log10 (% of sTRSVctl)); HEK293T; ligand: cyclic di-GMP (c-di-GMP-II aptamer); ligand concentration (+) RNA-Seq: 1 mM; higher = less ribozyme self-cleavage, higher mRNA level; details: reporter: mCherry (pCS4076), ligand present: yes
In short: as §1

Row | Variant | normalized RNA/DNA level without ligand (log10) (cyclic di-GMP [1]) | normalized RNA/DNA level with ligand (log10) (cyclic di-GMP [2])
1 | GCUGUCACCGAGAAACUGUGAAGUAUAUCUUAAACCUGGGCACUUAAAAGAUAUAUGGAGUUAGUAGUGCAACCUGCUCGGUCUGAUGAGUCCCCACCGGGACGAAACAGC | 1.74 ± 0.078 | 1.89 ± 0.14
2 | GCUGUCACCGAGAAACUGUGAAGUAUAUCUUAAACCUGGGCACUUAAAAGAUAUAUGGAGUUAGUAGUGCAACCUGCUCGGUCUGAUGAGUCCCCUUAUGGACGAAACAGC | 1.6 ± 0.034 | 1.79 ± 0.087
3 | GCUGUCACCGAGAAACUGUGAAGUAUAUCUUAAACCUGGGCACUUAAAAGAUAUAUGGAGUUAGUAGUGCAACCUGCUCGGUCUGAUGAGUCCCGAGGUGGACGAAACAGC | 1.72 ± 0.038 | 1.84 ± 0.096
4 | GCUGUCACCGAGAAACUGUGAAGUAUAUCUUAAACCUGGGCACUUAAAAGAUAUAUGGAGUUAGUAGUGCAACCUGCUCGGUCUGAUGAGUCCCGUUAGGGACGAAACAGC | 1.753 ± 0.0013 | 1.89 ± 0.11
5 | GCUGUCACCGAGAAACUGUGAAGUAUAUCUUAAACCUGGGCACUUAAAAGAUAUAUGGAGUUAGUAGUGCAACCUGCUCGGUCUGAUGAGUCCCACGUCGGACGAAACAGC | 1.73 ± 0.075 | 1.87 ± 0.11
6 | GCUGUCACCGAGAAACUGUGAAGUAUAUCUUAAACCUGGGCACUUAAAAGAUAUAUGGAGUUAGUAGUGCAACCUGCUCGGUCUGAUGAGUCCUGACCAGGACGAAACAGC | 1.7585 ± 0.0012 | 1.88 ± 0.074
7 | GCUGUCACCGAGAAACUGUGAAGUAUAUCUUAAACCUGGGCACUUAAAAGAUAUAUGGAGUUAGUAGUGCAACCUGCUCGGUCUGAUGAGUCCUACCCGGGACGAAACAGC | 1.766 ± 0.014 | 1.9 ± 0.063
